This is an account of results in the supplement of paper PMC10567573.

Sequences and labels used below:
B1: PLD5 (parent)
chain: VTYMNMTAYNKGRLQSSFWIVDKQ
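Also: lentivirally expressed fusions sorted by FACS into six bins by GFP to DsRed ratio, PSI derived from sequencing read proportions per bin multiplied by bin number.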

In this series the parent is B1. The series is described as follows: protein stability index of a GFP-peptide fusion (GPS, HEK-293T) (PSI 1-6); higher = more stable. As to conditions: c terminus: a fixed tail appended.
Turning to VTYMNMTAYNKGRLQSSFGIVDKQ [W19G], the protein stability index came to 2.01.

As to VTYMNMTAYNKGRLQSSFCIVDKQ [W19C], the protein stability index is 1.49.

Consider VTYMNMTAYNKGRLQSSFYIVDKQ [W19Y], for which the protein stability index amounted to 1.91.

For the variant VTYMNMTAYNKGRLQSSFQIVDKQ [W19Q], the protein stability index amounted to 2.46.

As for VTYMNMTAYNKGRLQSSFVIVDKQ [W19V], the protein stability index is 1.65.

As to VTYMNMTAYNKGRLQSSFDIVDKQ [W19D], the protein stability index is 2.45.

For the variant VTYMNMTAYNKGRLQSSFHIVDKQ [W19H], the protein stability index is 2.21.

As to VTYMNMTAYNKGRLQSSFLIVDKQ [W19L], the protein stability index came to 2.

In the case of VTYMNMTAYNKGRLQSSFFIVDKQ [W19F], the protein stability index was found to be 2.04.

VTYMNMTAYNKGRLQSSFEIVDKQ [W19E]: the protein stability index was determined as 2.04.

For VTYMNMTAYNKGRLQSSFKIVDKQ [W19K], the protein stability index turned out to be 1.84.

On to VTYMNMTAYNKGRLQSSFRIVDKQ [W19R], for which the protein stability index stood at 1.91.

VTYMNMTAYNKGRLQSSFIIVDKQ [W19I]: the protein stability index came out at 1.76.

Regarding VTYMNMTAYNKGRLQSSFAIVDKQ [W19A], the protein stability index was determined as 1.8.

VTYMNMTAYNKGRLQSSFSIVDKQ [W19S]: the protein stability index was determined as 2.29.

On to VTYMNMTAYNKGRLQSSFPIVDKQ [W19P], for which the protein stability index came out at 1.98.

As to VTYMNMTAYNKGRLQSSFTIVDKQ [W19T], the protein stability index was found to be 2.18.

Take VTYMNMTAYNKGRLQSSFMIVDKQ [W19M]: the protein stability index worked out at 1.62.

Turning to VTYMNMTAYNKGRLQSSFWIVDMQ [K23M], the protein stability index was found to be 3.22.

In the case of VTYMNMTAYNKGRLQSSFWIVDLQ [K23L], the protein stability index came to 4.23.

As for VTYMNMTAYNKGRLQSSFWIVDDQ [K23D], the protein stability index was found to be 2.85.

Take VTYMNMTAYNKGRLQSSFWIVDAQ [K23A]: the protein stability index amounted to 3.81.

With VTYMNMTAYNKGRLQSSFWIVDIQ [K23I], the protein stability index amounted to 2.33.

Take VTYMNMTAYNKGRLQSSFWIVDCQ [K23C]: the protein stability index worked out at 1.95.

On to VTYMNMTAYNKGRLQSSFWIVDEQ [K23E], for which the protein stability index amounted to 3.18.

Consider VTYMNMTAYNKGRLQSSFWIVDHQ [K23H], for which the protein stability index stood at 2.49.

In the case of VTYMNMTAYNKGRLQSSFWRVDKQ [I20R], the protein stability index is 1.51.

On to VTYMNMTAYNKGRLQSSFWKVDKQ [I20K], for which the protein stability index amounted to 2.27.

Take VTYMNMTAYNKGRLQSSFWAVDKQ [I20A]: the protein stability index came to 1.41.

As to VTYMNMTAYNKGRLQSSFWMVDKQ [I20M], the protein stability index is 3.68.

Regarding VTYMNMTAYNKGRLQSSFWEVDKQ [I20E], the protein stability index is 2.23.

For VTYMNMTAYNKGRLQSSFWQVDKQ [I20Q], the protein stability index was determined as 1.97.

On to VTYMNMTAYNKGRLQSSFWPVDKQ [I20P], for which the protein stability index turned out to be 1.7.

For the variant VTYMNMTAYNKGRLQSSFWGVDKQ [I20G], the protein stability index was 1.25.

For the variant VTYMNMTAYNKGRLQSSFWNVDKQ [I20N], the protein stability index is 1.91.

Regarding VTYMNMTAYNKGRLQSSFWYVDKQ [I20Y], the protein stability index was determined as 2.98.

As to VTYMNMTAYNKGRLQSSFWLVDKQ [I20L], the protein stability index was found to be 1.22.

VTYMNMTAYNKGRLQSSFWCVDKQ [I20C]: the protein stability index was 1.76.

Regarding VTYMNMTAYNKGRLQSSFWWVDKQ [I20W], the protein stability index is 2.26.

With VTYMNMTAYNKGRLQSSFWTVDKQ [I20T], the protein stability index was determined as 1.4.

As for VTYMNMTAYNKGRLQSSFWDVDKQ [I20D], the protein stability index amounted to 1.33.

In the case of VTYMNMTAYNKGRLQSSFWSVDKQ [I20S], the protein stability index is 2.09.

On to VTYMNMTAYNKGRLQSSFWHVDKQ [I20H], for which the protein stability index came to 2.41.

Consider VTYMNMTAYNKGRLQSSFWIRDKQ [V21R], for which the protein stability index worked out at 1.7.

On to VTYMNMTAYNKGRLQSSFWIGDKQ [V21G], for which the protein stability index was 1.53.

As for VTYMNMTAYNKGRLQSSFWISDKQ [V21S], the protein stability index was determined as 1.55.

Turning to VTYMNMTAYNKGRLQSSFWIPDKQ [V21P], the protein stability index was determined as 1.85.

Take VTYMNMTAYNKGRLQSSFWIADKQ [V21A]: the protein stability index is 2.08.

VTYMNMTAYNKGRLQSSFWIDDKQ [V21D]: the protein stability index was found to be 1.96.

For the variant VTYMNMTAYNKGRLQSSFWIMDKQ [V21M], the protein stability index was 1.52.

Regarding VTYMNMTAYNKGRLQSSFWIHDKQ [V21H], the protein stability index came to 1.28.

For the variant VTYMNMTAYNKGRLQSSFWIIDKQ [V21I], the protein stability index was 2.63.

VTYMNMTAYNKGRLQSSFWINDKQ [V21N]: the protein stability index came to 2.82.

Take VTYMNMTAYNKGRLQSSFWIFDKQ [V21F]: the protein stability index amounted to 1.43.

Take VTYMNMTAYNKGRLQSSFWITDKQ [V21T]: the protein stability index amounted to 2.43.

Take VTYMNMTAYNKGRLQSSFWIKDKQ [V21K]: the protein stability index worked out at 2.31.

Regarding VTYMNMTAYNKGRLQSSFWILDKQ [V21L], the protein stability index was 2.21.

Regarding VTYMNMTAYNKGRLQSSFWIYDKQ [V21Y], the protein stability index was 1.81.

Consider VTYMNMTAYNKGRLQSSFWICDKQ [V21C], for which the protein stability index amounted to 1.38.

With VTYMNMTAYNKGRLQSSFWIQDKQ [V21Q], the protein stability index amounted to 1.89.

In the case of VTYMNMTAYNKGRLQSSFWIEDKQ [V21E], the protein stability index turned out to be 1.5.

As to VTYMNMTAYNKGRLQSPFWIVDKQ [S17P], the protein stability index stood at 2.33.

As for VTYMNMTAYNKGRLQSNFWIVDKQ [S17N], the protein stability index stood at 1.49.

Take VTYMNMTAYNKGRLQSTFWIVDKQ [S17T]: the protein stability index amounted to 1.43.

As to VTYMNMTAYNKGRLQSMFWIVDKQ [S17M], the protein stability index amounted to 4.26.

In the case of VTYMNMTAYNKGRLQSYFWIVDKQ [S17Y], the protein stability index turned out to be 3.31.

As to VTYMNMTAYNKGRLQSRFWIVDKQ [S17R], the protein stability index came to 3.71.

In the case of VTYMNMTAYNKGRLQSSFWIVHKQ [D22H], the protein stability index was determined as 3.52.

As for VTYMNMTAYNKGRLQSSFWIVKKQ [D22K], the protein stability index amounted to 2.53.

For the variant VTYMNMTAYNKGRLQSSFWIVRKQ [D22R], the protein stability index is 3.44.

In the case of VTYMNMTAYNKGRLQSSFWIVNKQ [D22N], the protein stability index was determined as 3.19.

VTYMNMTAYNKGRLQSSFWIVMKQ [D22M]: the protein stability index is 3.38.

For the variant VTYMNMTAYNKGRLQSSFWIVTKQ [D22T], the protein stability index was 3.51.

For the variant VTYMNMTAYNKGRLQSSFWIVPKQ [D22P], the protein stability index was determined as 2.11.

For VTYMNMTAYNKGRLQSSFWIVEKQ [D22E], the protein stability index stood at 1.21.

Take VTYMNMTAYNKGRLQSSFWIVCKQ [D22C]: the protein stability index amounted to 3.67.

As for VTYMNMTAYNKGRLQSSWWIVDKQ [F18W], the protein stability index stood at 1.24.

As for VTYMNMTAYNKGRLQSSQWIVDKQ [F18Q], the protein stability index was 1.8.

In the case of VTYMNMTAYNKGRLQSSHWIVDKQ [F18H], the protein stability index was determined as 1.48.

Consider VTYMNMTAYNKGRLQSSNWIVDKQ [F18N], for which the protein stability index turned out to be 1.67.

For the variant VTYMNMTAYNKGRLQSSLWIVDKQ [F18L], the protein stability index worked out at 2.32.

With VTYMNMTAYNKGRLQSSMWIVDKQ [F18M], the protein stability index is 2.26.

With VTYMNMTAYNKGRLQSSSWIVDKQ [F18S], the protein stability index was 2.07.

With VTYMNMTAYNKGRLQSSDWIVDKQ [F18D], the protein stability index worked out at 2.07.

VTYMNMTAYNKGRLQSSEWIVDKQ [F18E]: the protein stability index was 2.2.

For the variant VTYMNMTAYNKGRLQSSKWIVDKQ [F18K], the protein stability index worked out at 1.8.

With VTYMNMTAYNKGRLQSSCWIVDKQ [F18C], the protein stability index came to 2.26.

On to VTYMNMTAYNKGRLQSSYWIVDKQ [F18Y], for which the protein stability index stood at 1.8.

For the variant VTYMNMTAYNKGRLQSSRWIVDKQ [F18R], the protein stability index was determined as 1.82.

Regarding VTYMNMTAYNKGRLQSSVWIVDKQ [F18V], the protein stability index is 2.57.

For VTYMNMTAYNKGRLQSSGWIVDKQ [F18G], the protein stability index was found to be 2.31.

As to VTYMNMTAYNKGRLQSSPWIVDKQ [F18P], the protein stability index stood at 2.02.

With VTYMNMTAYNKGRLQSSTWIVDKQ [F18T], the protein stability index was determined as 1.74.

Turning to VTYMNMTAYNKGRLQSSAWIVDKQ [F18A], the protein stability index is 2.89.
